Several values for one entry are separate records, joined by “and”; a condition that tells them apart may be missing. Equal entries are not always repeated. Where two headings read alike, the source gives them in different places.
What was measured:
[1] = target: recombinant secreted NS1 (sNS1) of DENV2 clinical strain PVP94/07 with C-terminal His6-tag (dengue virus 2 (clinical strain PVP94/07)); assay: cryo-EM structure; recombinant sNS1 alone, 0.25 mg/mL; 2D and 3D classification (Relion, CryoSPARC); also imaged with 0.05% DDM
[2] = target: recombinant secreted NS1 (sNS1) of DENV2 clinical strain PVP94/07 with C-terminal His6-tag (dengue virus 2 (clinical strain PVP94/07)); assay: AUC; sedimentation velocity, 72,446 x g, 20 °C, 1 mg/ml protein in NTE buffer, SEDFIT continuous c(s) distribution
[3] = target: recombinant secreted NS1 (sNS1) of DENV2 clinical strain PVP94/07 with C-terminal His6-tag (dengue virus 2 (clinical strain PVP94/07)); assay: cryo-EM structure; recombinant sNS1 complexed with Fab 5E3, molar ratio 1:1.2, final sNS1 0.25 mg/mL
[4] = target: recombinant secreted NS1 (sNS1) of DENV2 clinical strain PVP94/07 with C-terminal His6-tag (dengue virus 2 (clinical strain PVP94/07)); assay: cross-linking
[5] = target: sNS1 from the supernatant of DENV2 PVP94/07 infected cells (dengue virus 2 (clinical strain PVP94/07)); assay: cross-linking
[6] = target: sNS1 from the supernatant of DENV2 PVP94/07 infected cells (dengue virus 2 (clinical strain PVP94/07)); assay: cross-linking; remark: listed apart in the source

Row | Substance | stoichiometry N [1] | stoichiometry N [2] | stoichiometry N [3] | stoichiometry N [4] | stoichiometry N [5] | stoichiometry N [6]
1 | recombinant secreted NS1 (sNS1) of DENV2 clinical strain PVP94/07 with C-terminal His6-tag (natural protein) | 6 and 4 | 4 and 6 | 2 and 4 | 6 and 4 and 2 | – | –
2 | sNS1 from the supernatant of DENV2 PVP94/07 infected cells (natural protein) | – | – | – | – | 4 and 2 | 6

From publication PMC9643530
